B1: H2-Kb / G2 (parent)
chain 1: GEQVEQRPPHLSVREGDSAVIICTYTDPNSYYFFWYKQEPGAGLQLLMKVFSSTEINEGQGFTVLLNKKDKQLSLNLTAAHPGDSAVYFCAVRTNQGGRALIFGTGTTVSVSP
chain 2: EAAVTQSPRSKVAVTGGKVTLSCHQTNNHDYMYWYRQDTGHGLRLIHYSYVADSTEKGDIPDGYKASRPSQENFSLILELASLSQTAVYFCASSGTDTEVFFGKGTRLTVV
chain 3: not shown
chain 4: IQKTPQIQVYSRHPPENGKPNILNCYVTQFHPPHIEIQMLKNGKKIPKVEMSDMSFSKDWSFYILAHTEFTPTETDTYACRVKHDSMAEPKTVYWDRDM
chain 5: SIINFEKL
B2: H2-Kb / B10 (parent)
chain 1: GQQVQQSPASLVLQEGENAELQCNFSSTATRLQWFYQRPGGSLVSLLSNPSGTKHTGRLTSTTVTKERRGSLHISSSQITDSGTYLCAPGGSNAKLTFGKGTKLSVKS
chain 2: DPKIIQKPKYLVAVTGSEKILICEQYLGHNAMYWYRQSAKKPLEFMFSYSYQKLMDNQTASSRFQPQSSKKNHLDLQITALKPDDSATYFCASSLRGGNNQAPLFGEGTRLSVL
chain 3: not shown
chain 4: B1 chain 4
chain 5: SIINFEKL
Note: test concentration or dose not given here.

Variants of: B1
Experiment: % of reporter cells activated (NFAT-GFP), raw
Conditions: with G2; scale: % of reporter cells activated
A ratio to parent of 1.02 was found for chain 5 E6I in this work. A ratio to parent of 1.15 was found for chain 5 E6M in this work. A ratio to parent of 1.39 was found for chain 5 E6N in this work. A ratio to parent of 1.73 was found for chain 5 E6T in this work. A ratio to parent of 1.01 was found for chain 5 E6S in this work. A ratio to parent of 1.41 was found for chain 5 E6Q in this work. A ratio to parent of 1.71 was found for chain 5 E6Y in this work. A ratio to parent of 1.08 was found for chain 5 E6L in this work. A ratio to parent of 1.9 was found for chain 5 E6A in this work. A ratio to parent of 1.31 was found for chain 5 E6W in this work. A ratio to parent of 1.36 was found for chain 5 E6F in this work. A ratio to parent of 1.18 was found for chain 5 E6C in this work. A ratio to parent of 1.29 was found for chain 5 E6G in this work. A ratio to parent of 1.7 was found for chain 5 E6V in this work. A ratio to parent of 1.36 was found for chain 5 E6H in this work. A ratio to parent of 1.3 was found for chain 5 E6K in this work. A ratio to parent of 1.53 was found for chain 5 E6P in this work. A ratio to parent of 1.28 was found for chain 5 E6D in this work. A ratio to parent of 1.34 was found for chain 5 E6R in this work. A ratio to parent of 1.23 was found for chain 5 F5G in this work. A ratio to parent of 0.88 was found for chain 5 F5S in this work. A ratio to parent of 1.36 was found for chain 5 F5K in this work. A ratio to parent of 1.06 was found for chain 5 F5I in this work. A ratio to parent of 1.34 was found for chain 5 F5E in this work. A ratio to parent of 1.06 was found for chain 5 F5T in this work. A ratio to parent of 1.62 was found for chain 5 F5Y in this work. A ratio to parent of 1.4 was found for chain 5 F5C in this work. A ratio to parent of 1.24 was found for chain 5 F5Q in this work. A ratio to parent of 1.51 was found for chain 5 F5H in this work. A ratio to parent of 1.77 was found for chain 5 F5D in this work. A ratio to parent of 0.984 was found for chain 5 F5N in this work. A ratio to parent of 1.15 was found for chain 5 F5W in this work. A ratio to parent of 1.46 was found for chain 5 F5L in this work. A ratio to parent of 1.42 was found for chain 5 F5V in this work. A ratio to parent of 1.42 was found for chain 5 F5P in this work. A ratio to parent of 1.38 was found for chain 5 F5A in this work. A ratio to parent of 1.31 was found for chain 5 F5M in this work. A ratio to parent of 0.864 was found for chain 5 F5R in this work. A ratio to parent of 0.88 was found for chain 5 I2M in this work. A ratio to parent of 1.41 was found for chain 5 I2E in this work. A ratio to parent of 1.65 was found for chain 5 I2P in this work. A ratio to parent of 1.56 was found for chain 5 I2T in this work. A ratio to parent of 1.32 was found for chain 5 I2F in this work. A ratio to parent of 1.58 was found for chain 5 I2D in this work. A ratio to parent of 1.16 was found for chain 5 I2K in this work. A ratio to parent of 1.32 was found for chain 5 I2S in this work. A ratio to parent of 1.66 was found for chain 5 I2A in this work. A ratio to parent of 1.11 was found for chain 5 I2N in this work. A ratio to parent of 1.54 was found for chain 5 I2Y in this work. A ratio to parent of 1.18 was found for chain 5 I2W in this work. A ratio to parent of 0.928 was found for chain 5 I2G in this work. A ratio to parent of 1.31 was found for chain 5 I2H in this work. A ratio to parent of 1.06 was found for chain 5 I2C in this work. A ratio to parent of 1.01 was found for chain 5 I2R in this work. A ratio to parent of 1.13 was found for chain 5 I2Q in this work. A ratio to parent of 1.25 was found for chain 5 I2L in this work. A ratio to parent of 1.18 was found for chain 5 I2V in this work. A ratio to parent of 1.6 was found for chain 5 S1M in this work. A ratio to parent of 0.976 was found for chain 5 S1V in this work. A ratio to parent of 1.31 was found for chain 5 S1C in this work. A ratio to parent of 1.55 was found for chain 5 S1N in this work. A ratio to parent of 1.54 was found for chain 5 S1E in this work. A ratio to parent of 1.45 was found for chain 5 S1I in this work. A ratio to parent of 1.26 was found for chain 5 S1H in this work. A ratio to parent of 1.63 was found for chain 5 S1F in this work. A ratio to parent of 1.22 was found for chain 5 S1Q in this work. A ratio to parent of 1.47 was found for chain 5 S1G in this work. A ratio to parent of 1.02 was found for chain 5 S1R in this work. A ratio to parent of 1.42 was found for chain 5 S1P in this work. A ratio to parent of 1.58 was found for chain 5 S1K in this work. A ratio to parent of 1.62 was found for chain 5 S1D in this work. A ratio to parent of 1.07 was found for chain 5 S1T in this work. A ratio to parent of 1.7 was found for chain 5 S1A in this work. A ratio to parent of 1.73 was found for chain 5 S1L in this work. A ratio to parent of 1.34 was found for chain 5 S1W in this work. A ratio to parent of 1.26 was found for chain 5 S1Y in this work. A ratio to parent of 1.27 was found for chain 5 K7T in this work. A ratio to parent of 1.46 was found for chain 5 K7E in this work. A ratio to parent of 1.58 was found for chain 5 K7A in this work. A ratio to parent of 0.664 was found for chain 5 K7R in this work. A ratio to parent of 1.63 was found for chain 5 K7H in this work. A ratio to parent of 1.18 was found for chain 5 K7N in this work. A ratio to parent of 1.34 was found for chain 5 K7M in this work. A ratio to parent of 1.12 was found for chain 5 K7Q in this work. A ratio to parent of 1.13 was found for chain 5 K7V in this work. A ratio to parent of 1.83 was found for chain 5 K7I in this work. A ratio to parent of 1.34 was found for chain 5 K7W in this work. A ratio to parent of 0.824 was found for chain 5 K7S in this work. A ratio to parent of 1.94 was found for chain 5 K7F in this work. A ratio to parent of 1.22 was found for chain 5 K7Y in this work. A ratio to parent of 1.29 was found for chain 5 K7D in this work. A ratio to parent of 0.936 was found for chain 5 K7G in this work. A ratio to parent of 1.46 was found for chain 5 K7P in this work. A ratio to parent of 1.88 was found for chain 5 K7C in this work. A ratio to parent of 2.32 was found for chain 5 K7L in this work. A ratio to parent of 1.06 was found for chain 5 L8A in this work. A ratio to parent of 2.01 was found for chain 5 L8M in this work. A ratio to parent of 0.744 was found for chain 5 L8Y in this work. A ratio to parent of 1.32 was found for chain 5 L8V in this work. A ratio to parent of 0.944 was found for chain 5 L8T in this work. A ratio to parent of 1.54 was found for chain 5 L8G in this work. A ratio to parent of 0.696 was found for chain 5 L8E in this work. A ratio to parent of 0.904 was found for chain 5 L8D in this work. A ratio to parent of 1.04 was found for chain 5 L8I in this work. A ratio to parent of 1.09 was found for chain 5 L8F in this work. A ratio to parent of 1.24 was found for chain 5 L8P in this work. A ratio to parent of 1.15 was found for chain 5 L8S in this work. A ratio to parent of 1.06 was found for chain 5 L8C in this work. A ratio to parent of 1.45 was found for chain 5 L8R in this work. A ratio to parent of 1.54 was found for chain 5 L8N in this work. A ratio to parent of 1.4 was found for chain 5 L8K in this work. A ratio to parent of 1.05 was found for chain 5 L8Q in this work. A ratio to parent of 1.78 was found for chain 5 L8H in this work. A ratio to parent of 0.768 was found for chain 5 L8W in this work. A ratio to parent of 1.26 was found for chain 5 I3D in this work. A ratio to parent of 1.19 was found for chain 5 I3F in this work. A ratio to parent of 0.968 was found for chain 5 I3V in this work. A ratio to parent of 0.8 was found for chain 5 I3R in this work. A ratio to parent of 1.3 was found for chain 5 I3W in this work. A ratio to parent of 1.42 was found for chain 5 I3A in this work. A ratio to parent of 1.34 was found for chain 5 I3L in this work. A ratio to parent of 1.55 was found for chain 5 I3E in this work. A ratio to parent of 1.39 was found for chain 5 I3G in this work. A ratio to parent of 1.88 was found for chain 5 I3M in this work. A ratio to parent of 1.53 was found for chain 5 I3N in this work. A ratio to parent of 1.44 was found for chain 5 I3P in this work. A ratio to parent of 1.5 was found for chain 5 I3K in this work. A ratio to parent of 1.38 was found for chain 5 I3C in this work. A ratio to parent of 0.904 was found for chain 5 I3Y in this work. A ratio to parent of 0.936 was found for chain 5 I3S in this work. A ratio to parent of 1.18 was found for chain 5 I3H in this work. A ratio to parent of 0.992 was found for chain 5 I3T in this work. A ratio to parent of 1.03 was found for chain 5 I3Q in this work. A ratio to parent of 1.5 was found for chain 5 N4S in this work. A ratio to parent of 1.09 was found for chain 5 N4M in this work. A ratio to parent of 1.13 was found for chain 5 N4A in this work. A ratio to parent of 0.936 was found for chain 5 N4Y in this work. A ratio to parent of 1.4 was found for chain 5 N4D in this work. A ratio to parent of 1.38 was found for chain 5 N4H in this work. A ratio to parent of 1.02 was found for chain 5 N4C in this work. A ratio to parent of 1.13 was found for chain 5 N4I in this work. A ratio to parent of 0.904 was found for chain 5 N4T in this work. A ratio to parent of 1.34 was found for chain 5 N4P in this work. A ratio to parent of 0.976 was found for chain 5 N4G in this work. A ratio to parent of 0.928 was found for chain 5 N4E in this work. A ratio to parent of 2.17 was found for chain 5 N4W in this work. A ratio to parent of 1.54 was found for chain 5 N4L in this work. A ratio to parent of 1.18 was found for chain 5 N4Q in this work. A ratio to parent of 1.74 was found for chain 5 N4K in this work. A ratio to parent of 1.26 was found for chain 5 N4V in this work. A ratio to parent of 1.32 was found for chain 5 N4F in this work. A ratio to parent of 0.952 was found for chain 5 N4R in this work.

Variants of: B2
Experiment: % of reporter cells activated (NFAT-GFP), raw
Conditions: with B10; scale: % of reporter cells activated
A ratio to parent of 1.27 was found for chain 5 I2E in this work. A ratio to parent of 1.22 was found for chain 5 I2Y in this work. A ratio to parent of 0.82 was found for chain 5 I2W in this work. A ratio to parent of 1.49 was found for chain 5 I2T in this work. A ratio to parent of 1.43 was found for chain 5 I2Q in this work. A ratio to parent of 1.5 was found for chain 5 I2F in this work. A ratio to parent of 2.08 was found for chain 5 I2C in this work. A ratio to parent of 1.71 was found for chain 5 I2K in this work. A ratio to parent of 1 was found for chain 5 I2P in this work. A ratio to parent of 0.888 was found for chain 5 I2H in this work. A ratio to parent of 0.624 was found for chain 5 I2G in this work. A ratio to parent of 1.32 was found for chain 5 I2D in this work. A ratio to parent of 1.03 was found for chain 5 I2A in this work. A ratio to parent of 0.898 was found for chain 5 I2L in this work. A ratio to parent of 0.729 was found for chain 5 I2M in this work.

From paper PMC11480844
